{
  "source": "patent US20150315278A1",
  "about": "(Chugai, published 2015)",
  "key": {"[1]": {"target": "T1, soluble GPC3 core polypeptide (Homo sapiens (Human), UniProt P51654 25-563)", "T1 construct": "Immobilized on the ELISA plate at 1 ug/mL; also called glypican 3 antigen; glypican 3", "T1 sequence (P51654 other isoform, or with tags, fused parts or gaps limits assumed)": "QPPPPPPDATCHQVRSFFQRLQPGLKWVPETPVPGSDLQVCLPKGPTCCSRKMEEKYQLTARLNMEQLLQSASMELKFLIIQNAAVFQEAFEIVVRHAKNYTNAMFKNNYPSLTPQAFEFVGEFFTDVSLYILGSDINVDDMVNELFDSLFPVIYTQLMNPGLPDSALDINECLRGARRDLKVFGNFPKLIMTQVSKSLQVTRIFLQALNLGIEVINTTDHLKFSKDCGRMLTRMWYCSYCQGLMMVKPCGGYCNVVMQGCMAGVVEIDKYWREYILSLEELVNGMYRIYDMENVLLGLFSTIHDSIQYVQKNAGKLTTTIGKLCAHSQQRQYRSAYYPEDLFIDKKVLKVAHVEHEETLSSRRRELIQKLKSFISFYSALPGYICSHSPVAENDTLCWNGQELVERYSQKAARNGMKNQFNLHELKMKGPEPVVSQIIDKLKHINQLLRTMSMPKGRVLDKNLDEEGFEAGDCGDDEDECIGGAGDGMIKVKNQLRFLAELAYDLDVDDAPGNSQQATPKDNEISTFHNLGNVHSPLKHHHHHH", "assay": "competitive ELISA against biotinylated H0L0 on immobilized soluble GPC3 core (FIG. 4)", "procedure": "(§1) The H0L0 antibody and its point mutation-modified antibodies purified in (1) was evaluated by competitive ELISA. 100 μL of the soluble GPC3 core polypeptide (SEQ ID NO: 13) at 1 μg/mL was added to each well of a 96-well plate. The soluble GPC3 core polypeptide was immobilized on the plate by allowing the plate to stand overnight at 4° C. The soluble GPC3 core polypeptide immobilized on the plate was washed 3 times with a washing buffer using Skan WASHER400 (Molecular Devices); and blocked with 200 μL blocking buffer at 4° C. for at least 30 min. The blocked plate on which soluble GPC3 core polypeptide was immobilized was then washed 3 times with washing buffer using the Skan WASHER400. Subsequently, each well of the plate received 200 μL of a mixture containing 100 μL of biotinylated H0L0 antibody (final concentration=0.3 μg/mL) and 100 μL of the H0L0 antibody or its point mutation-modified antibody (at various concentrations). The H0L0 antibody was biotinylated using Biotin Labeling Kit (Roche) according to the instructions provided with the kit. The plate was left stand for 1 hour at room temperature, then washed 5 times with washing buffer using the Skan WASHER400 (Molecular Devices). […] The absorbance at 405 nm of the reaction solution in each well was measured using Benchmark Plus (BIO-RAD), with the control absorbance at 655 nm."}, "[2]": {"target": "T1, soluble GPC3 core polypeptide", "assay": "competitive ELISA against biotinylated H0L0 on immobilized soluble GPC3 core (FIG. 14)", "procedure": "The H0L0 antibody and its point mutation-modified antibodies purified in (1) was evaluated by competitive ELISA. 100 μL of the soluble GPC3 core polypeptide (SEQ ID NO: 13) at 1 μg/mL was added to each well of a 96-well plate. The soluble GPC3 core polypeptide was immobilized on the plate by allowing the plate to stand overnight at 4° C. The soluble GPC3 core polypeptide immobilized on the plate was washed 3 times with a washing buffer using Skan WASHER400 (Molecular Devices); and blocked with 200 μL blocking buffer at 4° C. for at least 30 min. The blocked plate on which soluble GPC3 core polypeptide was immobilized was then washed 3 times with washing buffer using the Skan WASHER400. Subsequently, each well of the plate received 200 μL of a mixture containing 100 μL of biotinylated H0L0 antibody (final concentration=0.3 μg/mL) and 100 μL of the H0L0 antibody or its point mutation-modified antibody (at various concentrations). The H0L0 antibody was biotinylated using Biotin Labeling Kit (Roche) according to the instructions provided with the kit. The plate was left stand for 1 hour at room temperature, then washed 5 times with washing buffer using the Skan WASHER400 (Molecular Devices). 100 μL goat anti-streptavidin alkaline phosphatase (ZYMED), diluted 20,000× with substrate buffer, was added to each well, and the resulting plate was left stand for 1 hour at room temperature, and then washed 5 times with washing buffer using the Skan WASHER400. Phosphatase Substrate (Sigma) was prepared at 1 mg/mL in the substrate buffer, added at 100 μL per well for 1 hour. The absorbance at 405 nm of the reaction solution in each well was measured using Benchmark Plus (BIO-RAD), with the control absorbance at 655 nm.\nThe binding activity to the antigen of each constant region pI modified antibody was measured using the method described in Example 1 (FIG. 14)."}, "[3]": {"target": "T1, soluble GPC3 core polypeptide", "assay": "competitive ELISA against biotinylated H0L0 on immobilized soluble GPC3 core (FIG. 5)", "procedure": "as §1"}, "[4]": {"target": "T1, soluble GPC3 core polypeptide", "assay": "competitive ELISA against biotinylated H0L0 on immobilized soluble GPC3 core (FIG. 10)", "procedure": "as §1, with “kit.” for “kit. The plate was left stand for 1 hour at room temperature, then washed 5 times with washing buffer using the Skan WASHER400 (Molecular Devices).”\nThe binding activity to the antigen glypican 3 of each point mutation pI modified antibody was measured using the method described in Example 1 (FIG. 10)."}, "[5]": {"target": "T1, soluble GPC3 core polypeptide", "assay": "competitive ELISA against biotinylated H0L0 on immobilized soluble GPC3 core (FIG. 6)", "procedure": "as §1"}},
  "data": [
    {"binder": "H15L4 antibody (antibody, V domains shown, Point-mutation modified form of H0L0) VH: QVQLVQSGAEVKKPGASVKVSCKASGYTFTDYEMHWIRQPPGQGLEWIGAIDPKTGDTAYSQKFKGRVTLTADKSTSTAYMELSSLTSEDTAVYYCTRFYSYTYWGQGTLVTVSS VL: DIVMTQSPLSLPVTPGEPASISCRSSQSLVHSNRNTYLHWYQQKPGQAPRLLIYKVSNRFSGVPDRFSGSGSGTDFTLKISRVEAEDVGVYYCSQNTHVPPTFGQGTKLEIK", "values": [
      {"measurement": "binding result", "setting": "[1]", "value": "binds"}
    ]},
    {"binder": "pH7pL16 antibody (antibody, IgG1, V domains shown, Variable regions only) VH: QVQLVQSGAEVKKPGASVTVSCKASGYTFTDYEMHWIRQPPGEGLEWIGAIDPKTGDTAYSESFQDRVTLTADKSTSTAYMELSSLTSEDTAVYYCTRFYSYTYWGQGTLVTVSS VL: DIVMTQSPLSLPVTPGEPASISCQASESLVHSNRNTYLHWYLQKPGQSPQLLIYKVSNRFSGVPDRFSGSGSGTDFTLKISRVEAEDVGVYYCSQNTHVPPTFGQGTKVEIE", "values": [
      {"measurement": "binding result", "setting": "[2]", "value": "binds"}
    ]},
    {"binder": "pH7M85pL16 antibody (antibody, human IgG1, V domains shown, its constant region is not specified; also called pH7M85pL6 [sic]) VH: QVQLVQSGAEVKKPGASVTVSCKASGYTFTDYEMHWIRQPPGEGLEWIGAIDPKTGDTAYSESFQDRVTLTADKSTSTAYMELSSLTSEDTAVYYCTRFYSYTYWGQGTLVTVSS VL: DIVMTQSPLSLPVTPGEPASISCQASESLVHSNRNTYLHWYLQKPGQSPQLLIYKVSNRFSGVPDRFSGSGSGTDFTLKISRVEAEDVGVYYCSQNTHVPPTFGQGTKVEIE", "values": [
      {"measurement": "binding result", "setting": "[2]", "value": "binds"}
    ]},
    {"binder": "H0M85L0 antibody (antibody, human IgG1, V domains shown, its constant region is not specified) VH: QVQLVQSGAEVKKPGASVKVSCKASGYTFTDYEMHWVRQAPGQGLEWMGALDPKTGDTAYSQKFKGRVTLTADKSTSTAYMELSSLTSEDTAVYYCTRFYSYTYWGQGTLVTVSS VL: DVVMTQSPLSLPVTPGEPASISCRSSQSLVHSNRNTYLHWYLQKPGQSPQLLIYKVSNRFSGVPDRFSGSGSGTDFTLKISRVEAEDVGVYYCSQNTHVPPTFGQGTKLEIK", "values": [
      {"measurement": "binding result", "setting": "[2]", "value": "binds"}
    ]},
    {"binder": "Hspu2.2Lspu2.2 (Hu2.2Lu2.2) antibody (antibody, V domains shown, Raised-pI variant; Hspu2.2 = H15 + Q43K, D52N, Q107R; Lspu2.2 = L4 + E17Q, Q27R, Q105R, S25A) VH: QVQLVQSGAEVKKPGASVKVSCKASGYTFTDYEMHWIRQPPGKGLEWIGAINPKTGDTAYSQKFKGRVTLTADKSTSTAYMELSSLTSEDTAVYYCTRFYSYTYWGRGTLVTVSS VL: DIVMTQSPLSLPVTPGQPASISCRASRSLVHSNRNTYLHWYQQKPGQAPRLLIYKVSNRFSGVPDRFSGSGSGTDFTLKISRVEAEDVGVYYCSQNTHVPPTFGRGTKLEIK", "values": [
      {"measurement": "binding result", "setting": "[3]", "value": "binds"}
    ]},
    {"binder": "pH7pL14 antibody (antibody, V domains shown) VH: QVQLVQSGAEVKKPGASVTVSCKASGYTFTDYEMHWIRQPPGEGLEWIGAIDPKTGDTAYSESFQDRVTLTADKSTSTAYMELSSLTSEDTAVYYCTRFYSYTYWGQGTLVTVSS VL: DIVMTQSPLSLPVTPGEPASISCQASESLVHSNRNTYLHWYLQKPGQSPQLLIYKVSNRFSGVPDRFSGSGSGTDFTLKISRVEAEDVGVYYCSQNTHVPPTFGQGTKLEIK", "values": [
      {"measurement": "binding result", "setting": "[4]", "value": "binds"}
    ]},
    {"binder": "humanized H0L0 antibody (antibody, V domains shown, the light chain constant region is not specified; also called humanized GC33 antibody) VH: QVQLVQSGAEVKKPGASVKVSCKASGYTFTDYEMHWVRQAPGQGLEWMGALDPKTGDTAYSQKFKGRVTLTADKSTSTAYMELSSLTSEDTAVYYCTRFYSYTYWGQGTLVTVSS VL: DVVMTQSPLSLPVTPGEPASISCRSSQSLVHSNRNTYLHWYLQKPGQSPQLLIYKVSNRFSGVPDRFSGSGSGTDFTLKISRVEAEDVGVYYCSQNTHVPPTFGQGTKLEIK", "values": [
      {"measurement": "binding result", "setting": "[2]", "value": "binds"}
    ]},
    {"binder": "Hspd1.8Lspd1.6 (Hd1.8Ld1.6) antibody (antibody, V domains shown, Lowered-pI variant; Hspd1.8 = H15 + K19T, Q43E, K63S, K65Q, G66D; Lspd1.6 = L4 + Q27E, KISRVE(79-84) to TISSLQ, S25A) VH: QVQLVQSGAEVKKPGASVTVSCKASGYTFTDYEMHWIRQPPGEGLEWIGAIDPKTGDTAYSQSFQDRVTLTADKSTSTAYMELSSLTSEDTAVYYCTRFYSYTYWGQGTLVTVSS VL: DIVMTQSPLSLPVTPGEPASISCRASESLVHSNRNTYLHWYQQKPGQAPRLLIYKVSNRFSGVPDRFSGSGSGTDFTLTISSLQAEDVGVYYCSQNTHVPPTFGQGTKLEIK", "values": [
      {"measurement": "binding result", "setting": "[5]", "value": "binds"}
    ]}
  ]
}
